{
  "source": "patent US9120851B2",
  "about": "“Human antibodies to human angiopoietin-like protein 4” (Regeneron Pharmaceuticals, Inc., priority 2009, dated 2015)",
  "molecules": {"B1": {"name": "H4H268P2: IgG4 version of H1H268P with a single amino acid substitution in framework region 1, HCVR/LCVR SEQ ID NOs 487/44 (antibody, V domains shown)", "VH": "QVQLQQSGAGLLKPSETLSLTCTVYGGSFSIHHWTWIRHPPGKGLEWIGEINHRGSTNYNPSLKSRVTISIDTSKNQFSLKLSAVTAADTAVYYCARGLRFLDWLSSYFDYWGQGTLVTVSS", "VL": "DIQMTQSPSSLSASVGDRVTITCRASQGISDYLAWYQQKPGKVPNLLIYAASALQSGVPSRFSGSGSGTDFTLTISSLQPEDVATYYCQNYNTAPLTFGGGTKVEIK", "modifications": "IgG4 constant region"}},
  "key": {"[1]": {"test_system": "humanized ANGPTL4×ApoE null mice", "experiment": "Serum TG levels in humanized ANGPTL4 x ApoE null mice", "assay_type": "in vivo, mouse", "protocol": "The effect of H4H268P2 on circulating TG levels was further studied in humanized ANGPTL4 mice crossed to ApoE null mice. The ApoE null mouse model is known as a highly atherogenic and hyperlipidemic model with the majority of cholesterol and TG circulating in VLDL particles due to impaired VLDL remnant clearance. Humanized ANGPTL4×ApoE null mice were pre-bled 7 days before the experiment and put into 2 groups of six mice each. Antibodies H4H268P2 and Control Ab were administered at 10 mg/kg by subcutaneous injection. Mice were bled after 4 hours of fasting on days 1, 4, 7, 11 and 17 after antibody injection and TG levels were determined in the serum by ADVIA® 1800 Chemistry System (Siemens). TG reductions shown in FIG. 4 are expressed as a percent of TG levels compared to Control Ab."}, "[2]": {"test_system": "humanized ANGPTL4 mice", "experiment": "Serum TG, H4H268P2 and fenofibrate alone or in combination", "assay_type": "in vivo, mouse", "settings": "day 7; H4H268P2 10 mg/kg s.c. day 0; fenofibrate 0.05% (w/w) in chow", "protocol": "The effects of the anti-ANGPTL4 antibody H4H268P2 and TG-reducing drug fenofibrate, each alone or in combination, on serum TG levels were evaluated in humanized ANGPTL4 mice. The mice were pre-bled 7 days before the experiment after 4 hours of fasting and put into 4 groups of six mice each. Groups 2 and 4 were administered with H4H268P2 at 10 mg/kg by subcutaneous injection on day 0 and groups 1 (control group) and 2 were placed on regular chow diet. Groups 3 and 4 received chow diet supplemented with 0.05% (w/w) of fenofibrate (the dosage level was determined experimentally in a pilot study). Serum was collected from a terminal bleed on day 7 after H4H268P2 and/or fenofibrate administration (after 4 hours of fasting) and analyzed by ADVIA® 1800 Chemistry System (Siemens)."}, "[3]": {"test_system": "obese rhesus monkeys (Macaca mulatta)", "experiment": "Phase II pilot PK/PD study in obese rhesus monkeys", "assay_type": "in vivo, rhesus monkey (Macaca mulatta)", "settings": "10 mg/kg IV", "protocol": "Phase II: In the second non-GLP pharmacokinetics/pharmacodynamic (PK/PD) study only H4H268P2 was administered as a single bolus intravenous (IV) injection to eight obese rhesus monkeys (Macaca mulatta). The step of pre-dosing vehicle injection was omitted in this study. Three baseline assessments were taken at days −7, −3 and 0 of the study and all eight monkeys received H4H268P2 at 10 mg/kg by IV on day 0. Serum samples were collected from the baseline period through day 35 post-dosing and assessed for serum lipid levels by ADVIA® 1800 Chemistry System (Siemens). Animals were grouped for data analysis according to average baseline TG levels so as to prospectively predict the effect: A. TG<150 mg/dL (n=3); B. 150 mg/dL<TG<500 mg/dL (n=4); and C. TG>1000 mg/dL (n=1)."}, "[4]": {"test_system": "obese rhesus monkeys (Macaca mulatta)", "experiment": "Phase I pilot PK/PD study in obese rhesus monkeys", "assay_type": "in vivo, rhesus monkey (Macaca mulatta)", "protocol": "Phase I: In a pilot non-GLP pharmacokinetics/pharmacodynamic (PK/PD) study, H4H268P2 and H4H284P were administered as a single bolus intravenous (IV) injection, to obese rhesus monkeys (Macaca mulatta). Rhesus monkeys were selected because this species is closely related, both phylogenically and physiologically, to humans and is a species commonly used for nonclinical toxicity evaluations. Obese monkeys that had been on a high fat diet for greater than 6 months were selected because they typically display moderately elevated TG levels (i.e., mean >100 mg/dL; hyper-TG). Eight confirmed healthy, male monkeys were acclimated and assigned to the study for baseline assessment for 7 days prior to dosing. All animals received a vehicle (10 mM histidine, pH 6) IV infusion on Day −5, after which four of them received H4H268P2 and another four H4H284P at 10 mg/kg IV on day 0.\nSerum samples were collected from the baseline period through day 35 post-dosing and assessed for serum lipid levels by ADVIA® 1800 Chemistry System (Siemens). The average baseline for each animal was determined based on the samples taken on Days −7, −5 and 0. […] Thus the data analysis was done with 3 animals in each group. Percent (%) changes of serum TG levels from the baseline were determined for each animal and averaged for each Ab group."}, "[5]": {"settings": "animals with baseline 150 mg/dL<TG<500 mg/dL"}},
  "data": [
    {"molecule": "B1", "values": [
      {"measurement": "TG reduction compared to Control Ab", "setting": "[1]; all 17 days, 10 mg/kg s.c.", "value": "more than 42%"},
      {"measurement": "greatest TG reduction compared to Control Ab", "setting": "[1]; day 7, 10 mg/kg s.c.", "value": "~50", "unit": "%"},
      {"measurement": "TG levels reduced (mean) compared to control group on chow diet", "setting": "[2]", "value": "~40", "unit": "%"},
      {"measurement": "HDL-C, in words", "setting": "[3]; [5]", "value": "increased"},
      {"measurement": "LDL-C or Total-C, in words", "setting": "[3]; [5]", "value": "no effect"},
      {"measurement": "decrease in TG levels from baseline", "setting": "[3]; [5]", "value": "50-68%"},
      {"measurement": "response of fasting TG, in words", "setting": "[3]; animals with baseline TG<150 mg/dL (normal TG levels)", "value": "largely unresponsive"},
      {"measurement": "TG level, in words", "setting": "[3]; individual animal with baseline TG >1000 mg/dL", "value": "dramatic and rapid drop in TG level"},
      {"measurement": "additional lipids, such as LDL-C and HDL-C, in words", "setting": "[4]; 10 mg/kg IV", "value": "Moderate effects"},
      {"measurement": "total-C, in words", "setting": "[4]; 10 mg/kg IV", "value": "unchanged"},
      {"measurement": "injection site reactions or other adverse effects", "setting": "[4]; 10 mg/kg IV, any time point after infusion", "value": "No injection site reactions or other adverse effects were observed"},
      {"measurement": "maximal reduction of serum TG from baseline", "setting": "[4]; day 4 post-dosing, 10 mg/kg IV, three mildly hyper-TG animals", "value": 57, "unit": "%"},
      {"measurement": "fasting TG's or any other lipid parameters, in words", "setting": "[4]; single obese animal with low TG levels, 10 mg/kg IV", "value": "did not yield any significant effect"},
      {"measurement": "mean serum TG levels", "setting": "[4]; until approximately Day 25, 10 mg/kg IV, three mildly hyper-TG animals", "value": "≤ 100", "unit": "mg/dL"}
    ]}
  ]
}
